Format in all cases: binding
The target of experiment [1] is T1, ADIFAB (Rattus norvegicus, UniProt P02693).
T1 construct: purchased FFA Sciences LLC, San Diego, Calif
T1 sequence (P02693 2-132): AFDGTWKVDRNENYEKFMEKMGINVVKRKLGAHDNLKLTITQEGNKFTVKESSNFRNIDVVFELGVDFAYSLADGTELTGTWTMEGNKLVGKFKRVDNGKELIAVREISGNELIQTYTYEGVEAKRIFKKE
The experiment is described as follows: ADIFAB screening assay in 96-well plates (emission ratio 505/432). The text has this: In a preferred embodiment, the probe is a fatty acid binding protein (FABP), more preferably a recombinant rat intestinal fatty acid binding protein (rI-FABP), which has been derivatized with acrylodan. DNA and protein sequences for Fatty Acid Binding Proteins (FABPs) are shown in the sequence listing. […] The rat fatty acid binding protein is post-translationally modified in the rat, with the modifications including the removal of the N-terminal methionine and the acetylation of the “new” N-terminal residue Ala. Protein sequences are numbered starting with the first residue of the mature protein. Thus, Ala is residue 1 in the corresponding protein shown as SEQ ID NO: 2. […]
Five identical 96-well plates were prepared with 0.5 μM ADIFAB and 1% dimethyl sulfoxide in 200 μL aqueous buffer (20 mM HEPES, 140 mM NaCl, 5 mM KCl, 1 mM Na2HPO4, pH 7.4) to test assay reproducibility, precision, and quality. Wells were excited at 386 nm and the emission detected at 432 and 505 nm with a fluorescence plate reader connected via fiber optic cables to a standard Spex spectrofluorometer. The emission ratio (505/432), which determines the amount of bound […], was calculated for each well. A positive control (4 μM sodium oleate (OA)) was added to each well and the ratio was measured again. […] The Z′-factor, as defined below, provides a quantitative assessment of the assay [Zhang, J., et al J. Biomol. […]

The nature of experiment [2]: Probe fluorescence ratio response to palmitoleic acid relative to ADIFAB2. The note with it: response relative to ADIFAB2. The procedure, abridged: (§1)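 Fluorescently labeled rat intestinal FABP variants were read at two emission wavelengths, near the unbound maximum (about 420 to 480 nm) and the FFA-bound maximum (about 495 to 580 nm). R = Fλ1/Fλ2 after subtracting probe-free intensity; ΔR = R+agent − R0, normalized to ADIFAB2 (rI-FABP-L72A).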

The nature of experiment [3]: Probe fluorescence ratio response to linolenic acid relative to ADIFAB2. The note with it: response relative to ADIFAB2. The procedure, abridged: as §1
Experiment [4] in a line: Response profile of probe to fatty acids (Table 2).
Experiment [5] in a line: Probe fluorescence ratio response to palmitic acid relative to ADIFAB2. The note with it: response relative to ADIFAB2. The procedure, abridged:
as §1

Experiment [6] can be described thus: Probe fluorescence ratio response to stearic acid relative to ADIFAB2. The settings on record: response relative to ADIFAB2. The method, boiled down: as §1
Experiment [7] can be described thus: Probe fluorescence ratio response to oleic acid relative to ADIFAB2. The settings on record: response relative to ADIFAB2. The method, boiled down: as §1
Experiment [8] can be described thus: Probe fluorescence ratio response to arachidonic acid relative to ADIFAB2. The note with it: arachidonic acid; response relative to ADIFAB2. The procedure, abridged: as §1
Experiment [9] can be described thus: Probe fluorescence ratio response to linoleic acid relative to ADIFAB2. The note with it: response relative to ADIFAB2. The procedure, abridged:
as §1

“And” between values parts separate entries of the source, which are not always exact repeats. Equal values may be shown once.

Regarding `CCCCCCCC/C=C\CCCCCCCC(=O)[O-].[Na+]` [OA, sodium oleate], the “ρc+ average ratio (505/432), Positive Control (+OA)” value in [1] (4 μM OA, 0.5 μM ADIFAB, 1% dimethyl sulfoxide, one value per plate 1-5) was 1.77 and 1.84 and 1.81 and 1.68 and 1.83. Further, the ΔR in experiment [1] (4 μM oleate, positive control) is recorded as 1.8.

B1: 72T 73W 74G (protein, listed as Rattus norvegicus)
chain: AFDGTWKVDRNENYEKFMEKMGINVVKRKLGAHDNLKLTITQEGNKFTVKESSNFRNIDVVFELGVDFAYSTWGGTELTGTWTMEGNKLVGKFKRVDNGKELIAVREISGNELIQTYTYEGVEAKRIFKKE
modifications: PEPTIDE (1)...(131) wild-type rat intestinal fatty acid binding protein
On to B1, for which the “DR/DR POA” value in experiment [2] is given as 2.770. The “DR/DR LNA” value in experiment [3] is reported as 1.702. Also, the “response profile” value in [4] is “SA and AA lowest”. Besides, in [5], the “DR/DR PA” value stood at 1.817. Besides, the “DR/DR SA” value in experiment [6] amounted to 0.305. Further, the “DR/DR OA” value in experiment [7] was 0.822. The “DR/DR AA” value in experiment [8] is recorded as 0.687. In [9], the “DR/DR LA” value was 1.348.

B2: 21W 72A (protein, listed as Rattus norvegicus)
chain: AFDGTWKVDRNENYEKFMEKWGINVVKRKLGAHDNLKLTITQEGNKFTVKESSNFRNIDVVFELGVDFAYSAADGTELTGTWTMEGNKLVGKFKRVDNGKELIAVREISGNELIQTYTYEGVEAKRIFKKE
modifications: PEPTIDE (1)...(131) wild-type rat intestinal fatty acid binding protein
For B2, the “DR/DR POA” value in experiment [2] was found to be 2.120. In addition, in experiment [3], the “DR/DR LNA” value came out at 2.550. For the same molecule, the “response profile” value in experiment [4] is recorded as “Large Response, Favors AA”. The “DR/DR PA” value in experiment [5] amounted to 1.637. In experiment [6], the “DR/DR SA” value is recorded as 1.946. Besides, in experiment [7], the “DR/DR OA” value is given as 2.808. In addition, in [8], the “DR/DR AA” value amounted to 3.829. Further, the “DR/DR LA” value in [9] was determined as 2.551.

B3: 38Y 18L 73V 72A (protein, listed as Rattus norvegicus)
chain: AFDGTWKVDRNENYEKFLEKMGINVVKRKLGAHDNLKYTITQEGNKFTVKESSNFRNIDVVFELGVDFAYSAVDGTELTGTWTMEGNKLVGKFKRVDNGKELIAVREISGNELIQTYTYEGVEAKRIFKKE
modifications: PEPTIDE (1)...(131) wild-type rat intestinal fatty acid binding protein
In the case of B3, the “DR/DR POA” value in [2] came to 0.023. In experiment [3], the “DR/DR LNA” value is listed as 0.133. The “response profile” value in experiment [4] is “AA and SA”. The “DR/DR PA” value in [5] worked out at 0.067. Also, in experiment [6], the “DR/DR SA” value came to 0.824. Further, the “DR/DR OA” value in experiment [7] worked out at 0.235. In addition, in experiment [8], the “DR/DR AA” value worked out at 1.172. Moreover, the “DR/DR LA” value in [9] amounted to 0.034.

B4: 72H 73P 74L (protein, listed as Rattus norvegicus)
chain: AFDGTWKVDRNENYEKFMEKMGINVVKRKLGAHDNLKLTITQEGNKFTVKESSNFRNIDVVFELGVDFAYSHPLGTELTGTWTMEGNKLVGKFKRVDNGKELIAVREISGNELIQTYTYEGVEAKRIFKKE
modifications: PEPTIDE (1)...(131) wild-type rat intestinal fatty acid binding protein
On to B4, for which, in experiment [2], the “DR/DR POA” value was 7.165. Also, the “DR/DR LNA” value in experiment [3] is on record as 6.352. Further, the “response profile” value in [4] is on record as “Large Response, Favors”. For the same molecule, the “DR/DR PA” value in experiment [5] is 5.260. The “DR/DR SA” value in [6] is on record as 1.474. Besides, the “DR/DR OA” value in experiment [7] is on record as 3.919. Besides, the “DR/DR AA” value in [8] stood at 4.597. For the same molecule, in [9], the “DR/DR LA” value was 5.429.

B5: 38Y 62W 117A 72A (protein, listed as Rattus norvegicus)
chain: AFDGTWKVDRNENYEKFMEKMGINVVKRKLGAHDNLKYTITQEGNKFTVKESSNFRNIDVVWELGVDFAYSAADGTELTGTWTMEGNKLVGKFKRVDNGKELIAVREISGNELIQTATYEGVEAKRIFKKE
modifications: PEPTIDE (1)...(131) wild-type rat intestinal fatty acid binding protein
Consider B5, for which the “DR/DR POA” value in experiment [2] stood at 0.272. Besides, the “DR/DR LNA” value in experiment [3] stood at 1.237. Moreover, the “response profile” value in [4] was “Favors AA”. Besides, the “DR/DR PA” value in [5] came out at 0.316. Also, the “DR/DR SA” value in experiment [6] is reported as 0.854. The “DR/DR OA” value in [7] was determined as 1.896. Moreover, the “DR/DR AA” value in experiment [8] is 2.353. The “DR/DR LA” value in experiment [9] amounted to 1.848.

B6: 72S 73P 74I (protein, listed as Rattus norvegicus)
chain: AFDGTWKVDRNENYEKFMEKMGINVVKRKLGAHDNLKLTITQEGNKFTVKESSNFRNIDVVFELGVDFAYSSPIGTELTGTWTMEGNKLVGKFKRVDNGKELIAVREISGNELIQTYTYEGVEAKRIFKKE
modifications: PEPTIDE (1)...(131) wild-type rat intestinal fatty acid binding protein
Turning to B6, the “DR/DR POA” value in experiment [2] was 3.155. In [3], the “DR/DR LNA” value is 3.091. Also, the “response profile” value in experiment [4] was “Favors POA and LNA”. In [5], the “DR/DR PA” value came to 2.210. In addition, the “DR/DR SA” value in [6] turned out to be 1.337. For the same molecule, the “DR/DR OA” value in [7] is 2.162. The “DR/DR AA” value in experiment [8] was determined as 2.154. In addition, the “DR/DR LA” value in experiment [9] is 2.792.

B7: 18I 31F 72A (protein, listed as Rattus norvegicus)
chain: AFDGTWKVDRNENYEKFIEKMGINVVKRKLFAHDNLKLTITQEGNKFTVKESSNFRNIDVVFELGVDFAYSAADGTELTGTWTMEGNKLVGKFKRVDNGKELIAVREISGNELIQTYTYEGVEAKRIFKKE
modifications: PEPTIDE (1)...(131) wild-type rat intestinal fatty acid binding protein
In the case of B7, in experiment [2], the “DR/DR POA” value is on record as 2.659. In addition, the “DR/DR LNA” value in experiment [3] stood at 3.027. Moreover, the “response profile” value in experiment [4] is “Favors LNA”. The “DR/DR PA” value in experiment [5] stood at 2.037. In [6], the “DR/DR SA” value was 0.950. For the same molecule, the “DR/DR OA” value in experiment [7] was 1.761. For the same molecule, the “DR/DR AA” value in [8] is on record as 2.043. Besides, the “DR/DR LA” value in experiment [9] worked out at 2.707.

Source of the values: patent publication US20060257938A1, “Method of screening for drugs that block ligand binding to a lipid binding protein” (priority 2005, published 2006).
